“Also recorded” adds a separate entry of the source. Bridge positions count the residues as written; N and C are the ends. Square brackets hold non-standard residues; d marks the D form. Ends that are not written are not given here. S5 = C=CCCC[C@](C)(N)C(=O)O
T1: RAB11 (Homo sapiens, UniProt P62491)
T1 construct: incubated in pre-cleared lysate from OVCAR3 cells, which express RAB11 and RAB25; endogenous in cells; host or cells: OVCAR3
T1 sequence (P62491 1-216): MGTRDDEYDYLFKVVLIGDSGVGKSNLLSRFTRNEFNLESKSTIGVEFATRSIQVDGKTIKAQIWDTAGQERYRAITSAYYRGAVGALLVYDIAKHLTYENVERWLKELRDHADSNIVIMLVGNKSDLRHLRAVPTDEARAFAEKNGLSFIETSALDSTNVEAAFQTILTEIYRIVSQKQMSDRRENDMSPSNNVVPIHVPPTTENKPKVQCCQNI

T2: RAB11 (Homo sapiens, UniProt P62491)
T2 construct: RAB11 (residues 1-175) was expressed with an N-terminal GST-tag with an internal thrombin cleavage site; GST (thrombin cleavage site between tag and RAB11) (N); made in house; host or cells: Escherichia coli BL21(DE3) pLysS
T2 sequence (P62491 1-175): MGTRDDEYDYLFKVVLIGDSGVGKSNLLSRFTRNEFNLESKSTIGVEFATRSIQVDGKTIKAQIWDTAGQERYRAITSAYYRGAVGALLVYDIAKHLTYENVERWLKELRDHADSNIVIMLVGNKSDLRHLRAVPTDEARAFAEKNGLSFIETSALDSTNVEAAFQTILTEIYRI

T3: RAB25 (Homo sapiens, UniProt P57735)
T3 construct: incubated in pre-cleared lysate from OVCAR3 cells, which express RAB11 and RAB25; endogenous in cells; host or cells: OVCAR3
T3 sequence (P57735 1-213): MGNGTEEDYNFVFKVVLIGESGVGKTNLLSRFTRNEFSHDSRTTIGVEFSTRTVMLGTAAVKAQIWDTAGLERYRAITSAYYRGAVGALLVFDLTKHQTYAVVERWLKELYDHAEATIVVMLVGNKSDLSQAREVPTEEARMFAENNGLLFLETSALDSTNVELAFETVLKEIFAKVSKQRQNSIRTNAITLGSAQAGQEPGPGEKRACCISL

T4: RAB25 (Homo sapiens, UniProt P57735)
T4 construct: RAB25 (residues E7-Q180) was expressed with an N-terminal GST- and hexahistidine tag; made in house; host or cells: Escherichia coli BL21(DE3) pLysS
T4 sequence (P57735 7-180): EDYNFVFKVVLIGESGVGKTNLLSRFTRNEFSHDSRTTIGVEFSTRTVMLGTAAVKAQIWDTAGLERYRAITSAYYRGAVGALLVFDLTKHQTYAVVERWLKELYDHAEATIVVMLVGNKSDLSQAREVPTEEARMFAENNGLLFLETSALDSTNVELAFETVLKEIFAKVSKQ

T5: GST-H6-RAB25 (Homo sapiens, UniProt P57735)
T5 construct: RAB25 (residues E7-Q180) was expressed with an N-terminal GST- and hexahistidine tag; made in house; host or cells: Escherichia coli BL21(DE3) pLysS
T5 sequence (P57735 7-180): T4 sequence (P57735 7-180)

B1: FIP3 protein: expressed FIP3 protein (652-756), soluble competitor in … (protein, UniProt O75154 652-756, looked up, fragment)
chain: QEYHSRARESELEQEVRRLKQDNRNLKEQNEELNGQIITLSIQGAKSLFSTAFSESLAAEISSVSRDELMEAIQKQEEINFRLQDYIDRIIVAIMETNPSILEVK
modifications: GST tag

Assays:
RAB11 [1] = target: T1, RAB11; assay: Biotin-RFP pulldown from OVCAR3 lysate, Western blot for RAB11; type: binding; settings: relative to mock or negative control RFP31
Protocol: (§1) Optimized RFP peptides were synthesized with an amino-terminal diethyleneglycol-biotin moiety. The peptides were immobilized on streptavidin-agarose resin/beads and incubated in pre-cleared lysate from OVCAR3 cells, which express RAB11 and RAB25. The beads were washed, and the protein was eluted and used for Western blot analysis to identify retained RAB11 and RAB25 (FIG. 24). […] The signal is similar to the relative binding affinities and ALPHASCREEN® IC50 observed for RFP peptides.

RAB11 [2] = target: T2, RAB11; assay: Fluorescence polarization binding of FITC-FIP/FITC-RFP peptides to RAB11; settings: FITC peptide 15 nM, fluorescence polarization
Protocol: Fluorescence polarization (FP) was used to measure FIP peptide binding to RAB11 and RAB25 proteins. […] This indicated specificity in the binding measurement, as this subtle change would be expected to perturb binding.
(§2) RAB11/25 protein binding assays were performed by incubating FITC-FIP or FITC-RFP (stapled FIP derivatives) peptides (15 nM) with three-fold dilutions of recombinantly-expressed, purified RAB11, RAB25 or a various epitope-tagged version of either in protein-binding buffer (25 mM Tris-HCl, pH 8.0, 150 mM NaCl, 1 mM EDTA, 1 mM DTT, 10 mM MgCl2, 10 mM GTP). Dilutions and incubations were made in 384-well, black flat-bottom plates (Corning) to a total volume of 40 μL and equilibrated for 60 minutes. Polarization was measured on a Spectramax-M5 multi-label plate reader with λex=485 nm and λem=525 nm. Polarization was calculated according to the standard equation: P=(V−H)/(V+H), where P=polarization, V=vertical emission intensity and H=horizontal emission intensity. Kd values were determined by fitting data to a variable-slope sigmoidal binding curve using Prizm 4 graphing software.
(§3) RAB11 and RAB25 proteins were expressed and purified in Escherichia coli strain BL21(DE3) pLysS (Stratagene) as epitope-tagged fusion proteins in various vectors (Novagen). RAB25 (residues E7-Q180) was expressed with an N-terminal GST- and hexahistidine tag with internal thrombin and TEV cleavage sites (GST-H6-RAB25) (SEQ ID NO: 86) in a pET41-1 vector (Novagen) or with an N-terminal hexahistidine tag alone with an internal thrombin cleavage site (H6-RAB25) (SEQ ID NO: 86) in a pET28 vector (Novagen). FIP3 protein (residues 649-756) was expressed with an N-terminal GST-tag with an internal TEV cleavage site (GST-FIP3) in a pGEX6p-1 vector (Novagen). RAB11 (residues 1-175) was expressed with an N-terminal GST-tag with an internal thrombin cleavage site in a pGEX5x-1 vector (Novagen). Transformed bacteria was grown at 37° C. until an OD600=0.8 was reached, at which point the culture was induced with 0.5 mM isopropyl β-D-1-thiogalactopyranoside (IPTG). Induced cells were grown at 30° C. for 6 hours, pelleted and lysed in binding buffer (25 mM Tris-HC;, pH 8.0, 150 mM NaCl, 1 mM EDTA, 1 mM DTT, 10 mM MgCl2, 10 mM GTP) supplemented with a complete protease inhibitor tablet (Roche) by sonication on ice. The lysate was centrifuged at 14,000 rpm to clear insoluble matter prior to loading onto Ni-NTA resin (Qiagen) for hexahistdine-tagged constructs or on GST-bind agarose resin (Biorad) for GST-tagged constructs. The protein-bound bead slurry was washed 4× with ˜20 mL of buffer and retained protein was eluted with either 250 mM imidazole or 20 mM glutathione in buffer for H6-(SEQ ID NO: 86) or GST-proteins, respectively. The eluent was concentrated using a 30 kD exclusion filter and purified by size-exclusion chromatography on a Superdex-75 Column (Amersham Pharmacia Biotech). Fractions containing purified protein were pooled, concentrated and dialyzed into binding buffer or other similar buffer for specific biochemical assays.

[3] = system: AKT phosphorylated at S473 (p473-AKT); assay: AKT phosphorylation at S473 in OVCAR3 cells (Western blot); type: cell-based, Human; design: dose or concentration left out as unconfirmed; settings: OVCAR3 cells treated with RFP26 for 24 hours
Source text: AKT, also known as Protein Kinase B (PKB), is a serine/threonine-specific protein kinase that is associated with tumor cell survival, proliferation, and invasiveness. The activation of AKT is also one of the most frequent alterations observed in human cancer and tumor cells, thus deregulation of the AKT plays a pivotal role in tumor biology (Stuenaes et al., Br. J. Pharmacol. (2010) 160(1):116-29). Full AKT activation requires phosphorylation by activating kinases on two residues: threonine 308 (T308) and serine 473 (S473). Hyperactivation of AKT is associated with resistance to apoptosis as well as increased cell proliferation and metabolism. […] To assess the affect of RFP26 on AKT phosphorylation in OVCAR3 cells, OVCAR3 cells were treated with […] RFP26 for 24 hours. The cells were then lysed, and the lysate was used in a Western blot to detect AKT phosphorylated at S473 (p473-AKT) and total AKT (FIG. 25A).

RAB25 [4] = target: T3, RAB25; assay: Biotin-RFP pulldown from OVCAR3 lysate, Western blot for RAB25; type: binding; settings: relative to mock or negative control RFP31
Protocol: as §1

RAB25 [5] = target: T4, RAB25; assay: Fluorescence polarization binding of FITC-FIP/FITC-RFP peptides to RAB25; settings: FITC peptide 15 nM
Protocol: as §2, §3

RAB25 [6] = assay: as above
Protocol: as §2, §3

OVCAR3 cells = assay: Transwell migration assay; type: cell-based, Human; settings: 15 μM for 24 hours, collagen-coated 8-micron transwells
Protocol: OVCAR3 cells were seeded on collagen-coated, 8-micron transwells in DMEM media. Cells were treated with 15 μM RFP26, RFP31 or vehicle for 24 hours during cell migration. The cells in the wells were fixed, and migrating cells were stained and counted (FIGS. 25B and 25C).

[7] = Circular dichroism spectra / percent helicity; type: physicochemical; settings: calculated from the absorbance at 222 nm
Protocol: We next investigated the structural stability of the RFPs by obtaining circular dichroism (CD) spectra for each peptide. All measurements were made at 20° C. in water with peptides at 50 μM. […] By comparison, stapled FIP peptides (RFPs) show helical CD spectra indicated by minima at approximately 208 and 222 nm (FIG. 11B).
A circular dichroism spectrometer (Jasco J-710, Japan) was used to determine the α-helical content of all peptides. Peptides were dissolved in water to a final concentration of 50 μM in a quartz cuvette with a path length of 1 cm. Absorbance values were taken at 1 nm intervals between 190 and 260 nm for buffer alone and for peptide solutions. The background (buffer) spectrum was subtracted from experimental spectra, which were subsequently subjected to baseline-normalization and curve-smoothing within the spectrometer software. Percent-helicity was calculated from the absorbance at 222 nm using helical models as previously reported in Chen Y H et al., Biochemistry, 13, 3350-9 (1974).

U2OS osteosarcoma cells = assay: Quantitative epifluorescence microscopy of cell penetration; type: cell-based; settings: 5 μM FITC-RFPs for 12 hours, DMEM 10% FBS
Protocol: U2OS osteosarcoma cells were treated with 5 μM FITC-RFPs for 12 hours in Dulbecco's Modified Eagle Medium (DMEM) (Gibco®) containing 10% fetal bovine serum (FBS). Cells were washed, then stained with Hoescht nuclear dye. Automated fluorescence microscopy was performed at 20× on an IX5000 epifluorescence microscope. Nuclear staining is shown in the top panel and FITC is show in the bottom panel (FIGS. 16 and 17B). Quantification was performed using MetaXpress software (FIG. 18A).

[8] = Peptide thermal stability by CD at 222 nm; type: physicochemical; settings: CD at 222 nm over 10-90° C.
Protocol: Peptide thermal stability was measured by scanning the peptide CD at 222 nm over a temperature range (10-90° C.). A sigmoidal unfolding curve was apparent for helices of unmodified FIP peptides (FIP4) with a Tm of ˜34° C. (FIG. 12A).
Peptide thermal stability experiments were performed in a similar manner to circular dichroism experiments in Example 5. Peptide solutions were cooled to 10° C. in a temperature controlled CD-chamber and circular dichroism absorbance at 222 nm was measured at 1 degree intervals while the solution was heated to 90° C. 222 nm CD values were plotted as a function of temperature and fitted to a sigmoidal denaturation curve, with the half-maximal temperature representing the Tm.

GST-H6-RAB25 = target: T5, GST-H6-RAB25; assay: ALPHASCREEN competition assay (biotin-RFP14 / GST-H6-RAB25 complex); type: binding; settings: competitor added to pre-formed biotin-RFP14/GST-H6-RAB25 complex
Source text: A nano-bead based […] assay (ALPHASCREEN®) was used to qualitatively assess protein binding (peptide-RAB or protein-RAB association) and quantitatively assess inhibitor ranking (competition assays). […] FIG. 13B schematizes the ALPHASCREEN® (binding) strategy. If an RFP (or FIP protein/peptide) conjugated to biotin (bound to a donor bead, in this case streptavidin) interacts with RAB conjugated to GST (bound to an acceptor bead, in this case, anti-GST), there is a proximity-dependent transfer of chemical energy, resulting in light production.
For competition assays, complexes consisting of biotin-FIP and GST-RAB proteins or biotin-RFP and GST-RAB peptides with free RFPs, unmodified peptides, and FIP proteins were incubated.
In FIGS. 13 and 14, the binding complex is pre-formed with Biotin-RFP14 and GST-H6-RAB25 (SEQ ID NO: 86). Soluble competitors were then added after an incubation time (30 min) across a dose range. These competitors are FIP3 (expressed protein), and Trp-labeled derivatives of RFP14, RFP16 and RFP17. After another incubation of 30 min the streptavidin donor beads and Ni-NTA acceptor beads are added and the luminescent signal is measured approximately 30 min later (total of ˜1.5 hr incubation time).

Row | Molecule | binding to and retention of RAB11 (RAB11 [1]) | binding affinity to RAB11 (RAB11 [2]) | AKT phosphorylation at S473 [3] | binding to and retention of RAB25 (RAB25 [4]) | binding affinity to RAB25 (RAB25 [5]) | relative affinity RAB11 versus RAB25 (selectivity) (RAB25 [6]) | OVCAR3 cellular migration (OVCAR3 cells) | theoretical percent helicity [7] | cell penetration (U2OS osteosarcoma cells) | Tm [8] [°C] | competition for RAB25 binding (IC50) (GST-H6-RAB25)
1 | RFP26: stapled FIP peptide containing an E-R mutation to increase overall charge, SEQ ID NO: 83 (RINFRLQN[S5]IDR[S5]IVRINETNPSILRVK; staple 9-13; not fully specified (C-terminus)) | significant binding to and retention | high affinity | decreased AKT phosphorylation at S473 | significant binding to and retention | retained binding affinity; also recorded: high affinity | some selectivity for RAB25 | inhibited OVCAR3 cellular migration |  |  |  | 
2 | RFP14: stapled FIP peptide, SEQ ID NO: 75 (RQVRELENYIDRLLV[S5]VNE[S5]TPNILRIPR; staple 16-20; not fully specified (C-terminus)) |  | highest binding affinity |  |  | highest binding affinity |  |  | highest helical content | lowest cell penetration | 64 | 
3 | B1 |  |  |  |  |  |  |  |  |  |  | significantly higher IC50

From patent publication US9487562B2, “Stabilized polypeptides as regulators of RAB GTPase function” (President and Fellows of Harvard College, priority 2011, dated 2016)
